Data published in patent publication US20210009657A1 (THEACHON, published 2021).

How the values were obtained:
[1] = target: T1, Aggrecan (R&D systems #1220-PG-025) (UniProt P16112 20-675); test: ELISA, aggrecan coated on plate, detection with anti-FGFR3 antibody
T1 construct: Coated on the ELISA plate at 10 ug/mL
Protocol: ELISA plate were coated with 10 μg/mL of Aggrecan (R&D systems #1220-PG-025) in a final volume of 50μI per well and incubated overnight at room temperature. Plate were blocked with 300μI of PBS 1% BSA per well during 1 h at room temperature. Different amount of protein (0 to 100 µl ) were incubated for 1 h at room temperature. Specific detection antibody against FGFR3 from an R&D system ELISA kit (#DYC766E) was used to detect recombinant protein fixed to aggrecan as recommended by the manufacturer.

[2] = target: T2, human FGF2 (human, UniProt P09038 143-288); test: fixed FGF2 incubated with increasing decoy, unbound FGF2 by ELISA
T2 construct: also called hFGF2; Fibroblast Growth Factor 2
Protocol: Fixed amounts of human FGF2, or human FGF9 (R&D Systems) were incubated for 2 h at 37° C. with increasing doses of each recombinant protein (0 to 250 ng/ml) in PBS 1% BSA. Specific commercial ELISA kits (R&D Systems; Clinisciences) were used to quantify remaining unbound FGFs. 1000 pg/ml or 1200 pg/ml were used for FGF2 and FGF9 respectively based on the sensitivity of the corresponding ELISA kits.

T2 sequence (P09038 143-288 limits assumed): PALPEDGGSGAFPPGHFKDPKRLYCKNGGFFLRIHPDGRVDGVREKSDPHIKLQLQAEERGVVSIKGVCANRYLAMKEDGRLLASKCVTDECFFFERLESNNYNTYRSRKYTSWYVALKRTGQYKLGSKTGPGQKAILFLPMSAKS
T1 sequence (P16112 20-675 limits assumed): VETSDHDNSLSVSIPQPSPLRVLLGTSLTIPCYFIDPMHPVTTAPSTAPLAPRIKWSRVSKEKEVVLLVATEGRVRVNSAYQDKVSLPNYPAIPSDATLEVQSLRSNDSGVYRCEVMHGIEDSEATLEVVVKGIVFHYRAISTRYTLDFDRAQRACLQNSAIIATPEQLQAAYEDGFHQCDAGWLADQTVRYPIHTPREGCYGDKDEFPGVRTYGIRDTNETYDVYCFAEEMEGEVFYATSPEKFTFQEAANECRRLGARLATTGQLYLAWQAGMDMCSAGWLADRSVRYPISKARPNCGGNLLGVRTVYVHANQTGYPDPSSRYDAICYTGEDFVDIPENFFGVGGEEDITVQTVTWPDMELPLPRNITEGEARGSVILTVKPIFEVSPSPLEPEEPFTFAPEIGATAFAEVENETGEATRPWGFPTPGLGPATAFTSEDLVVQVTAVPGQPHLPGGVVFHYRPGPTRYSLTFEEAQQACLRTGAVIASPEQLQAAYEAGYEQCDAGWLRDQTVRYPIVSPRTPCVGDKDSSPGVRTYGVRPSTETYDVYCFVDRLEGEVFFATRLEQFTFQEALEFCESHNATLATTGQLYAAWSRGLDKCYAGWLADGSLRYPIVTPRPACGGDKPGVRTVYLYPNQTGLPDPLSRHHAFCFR

| Binder | binding result [1] | binding result [2] |
| --- | --- | --- |
| FLAG-sFGFR3_Del4 (receptor, Obtained by site directed mutagenesis of sFGFR3-pFLAG-CMV3 and made in HEK 293 cells; also called Del4 variant) DYKDDDDKMGAPACALALCVAVAIVAGASSESLGTEQRVVGRAAEVPGPEPGQQEQLVFGSGDAVELSCPPPGGGPMGPTVWVKDGTGLVPSERVLVGPQRLQVLNASHEDSGAYSCRQRLTQRVLCHFSVRVTDAPSSGDDEDGEDEAEDTGVDTGAPYWTRPERMDKKLLAVPAANTVRFRCPAAGNPTPSISWLKNGREFRGEHRIGGIKLRHQQWSLVMESVVPSDRGNYTCVVENKFGSIRQTYTLDVLERSPHRPILQAGLPANQTAVLGSDVEFHCKVYSDAQPHIQWLKHVEVNGSKVGPDGTPYVTVLKVSLESNASMSSNT | no binding | – |
| FLAG-sFGFR3_Del4-LK1-LK2 (other, Fusion of a soluble FGFR3 fragment with the LK1 and LK2 link domains of human HPLN1; Made in HEK 293 cells; also called FP; fusion protein) DYKDDDDKLVDQIPAMGAPACALALCVAVAIVAGASSESLGTEQRVVGRAAEVPGPEPGQQEQLVFGSGDAVELSCPPPGGGPMGPTVWVKDGTGLVPSERVLVGPQRLQVLNASHEDSGAYSCRQRLTQRVLCHFSVRVTDAPSSGDDEDGEDEAEDTGVDTGAPYWTRPERMDKKLLAVPAANTVRFRCPAAGNPTPSISWLKNGREFRGEHRIGGIKLRHQQWSLVMESVVPSDRGNYTCVVENKFGSIRQTYTLDVLERSPHRPILQAGLPANQTAVLGSDVEFHCKVYSDAQPHIQWLKHVEVNGSKVGPDGTPYVTVLKVSLESNASMSSNTSGSGSGSGSGSGSGSVVFPYFPRLGRYNLNFHEAQQACLDQDAVIASFDQLYDAWRGGLDWCNAGWLSDGSVQYPITKPREPCGGQNTVPGVRNYGFWDKDKSRYDVFCFTSNFNGRFYYLIHPTKLTYDEAVQACLNDGAQIAKVGQIFAAWKILGYDRCDAGWLADGSVRYPISRPRRRCSPTEAAVRFVGFPDKKHKLYGVYCFRAYN | – | binds |
